Data reported in patent US7045604B2, “Family of genes encoding apoptosis-related peptides, peptides encoded thereby and methods of use thereof” (Tanox, Inc., priority 1996, dated 2006).
Numbered stars: 1 amine (or outer) side, 2 acyl side, 3 side chain; on linkers, the order of the positions; unused ones are H or OH. Bridge positions count the residues as written; N and C are the ends. Square brackets hold non-standard residues; d marks the D form. Peptide text beside a SMILES is read from it. I, II: the chains in the order shown. Actinocin(9to1) = Cc1c2oc3c(C)ccc(C(=O)[*:1])c3nc-2c(C(=O)[*:2])c(N)c1=O; NMeV = CN[C@H](C(=O)O)C(C)C; Sar = CNCC(=O)O

Columns and labels:
msarp1 = msarp1 expression in serum deprived exponentially growing 10T1/2 cells (Northern hybridization); type: cell-based, mouse; details: cells grown in serum free media supplemented with TPA
Method: Isolated DNA fragments were labeled with [^32P]dCTP (3000 Ci/mmol, Amersham) in a random priming reaction according to Feinberg and Vogelstein, (1982), supra. Hybridization was carried out according to the standard protocol described in Sambrook et al. (1989), supra. The membranes were washed two times with 2×SSC at room temperature for 30 minutes. Following two additional washes at 56° C. in 0.1×SSC, 0.1% SDS, the membranes were autoradiographed onto a Kodak X-Omat® films.
Since it has previously been shown that media conditioned with exponentially growing 10T1/2 cells also prevents apoptosis, we also analyzed msarp1 expression in serum deprived exponentially growing cells. RNA was isolated at different time points after removal of serum.

C3H/10T1/2 cells = test: Apoptosis of exponentially proliferating or quiescent 10T1/2 cells (adherent / non-adherent cell count); type: cell-based, mouse; details: for apoptosis / cell death: quiescent 10T1/2 cells arrested in G0
Method: C3H/10T1/2 cells were grown in Eagle's basal medium (BME) supplemented with 10% heat-inactivated fetal bovine serum (FBS) at 37° C. in a humidified 5% CO2 atmosphere without antibiotics. Cells were plated at 2×10^3 cells/mL and fed every 3–4 days. Approximately 2 weeks after the initial seeding, the cells were completely quiescent and few if any mitotic cells were present. To analyze the effect of serum deprivation or cycloheximide treatment, the exponentially proliferating (approximately 75% confluent) or quiescent cultures were transferred to serum-free medium or medium supplemented with 10 μg/mL cycloheximide. At 24 hours, the apoptotic (i.e. non-adherent) cells and the non-apoptotic (i.e. adherent) cells were collected separately and their amounts were evaluated using a cell counter (Coulter Counter® ZM). Serum free conditioned medium was obtained after 24 hour incubation of quiescent 10T1/2 cells in BME. The RNA was isolated by the guanidine-isothiocyanate method described in Chomezinski and Sacchi (1987) Anal. Biochem., 162:156–59. 20 μg samples of total RNA were subjected to electrophoresis in a 1.2% agarose formaldehyde gel. Sambrook et al. (eds) (1989).

β-catenin = test: Intracellular β-catenin in MCF7 transfectants (Western immunoblot, immunohistochemistry); type: cell-based, human; details: for intracellular concentration of β-catenin: Western immunoblot, MCF7 transfectants vs pcDNA3 control
Method: To determine whether SARPs interfered with Wnt-frizzled protein interaction, the expression of β-catenin in MCF7-transfectants was compared. The experiment was performed as follows. Cell Cultures. MCF7 human breast adenocarcinoma cells were plated at 2×10^5 cells/ml and cultured in Modified Eagle Medium (MEM) supplemented with 10% FBS. Serum free conditioned medium was obtained after 24 hour incubation of quiescent MCF7 cells in MEM.
(§1) Transfection of MCF7. MCF7 cells were transfected with the pcDNA3 mammalian expression vector (Invitrogen), containing either no insert, msarp1, or hsarp2 cDNAs, using LipofectAMINE reagent (Gibco) according to manufacturer's protocol. Stable transfectants and two-three weeks later single cell originated clones were selected with 1 mg/ml G418 and expression of the respective genes was confirmed by Northern hybridization.
Immunohistochemistry. Paraformaldehyde-fixed transfected MCF7 cells grown on 4-well Lab-Tek® chamber slides were probed by anti-β-catenin monoclonal IgG (Transduction Laboratories). Staining was performed by avidin-biotin-peroxydase system (Vector Laboratories) using diaminobenzidine as a substrate. IgG isolated from preimmune serum was used as a negative control.
Western Immunoblot. For Western analysis the samples of conditioned media were concentrated using CENTRIPREP®-10 concentrators (AMICON). Cells were harvested in extraction buffer consisting of 20 mM tris-HCl (pH 7.8), 5 mM MgCl2, 250 mM sucrose, 1% NP40. After 1 hour incubation on ice extracts were clarified by centrifugation. Protein concentrations of the cellular extracts were determined using DC Protein Assay kit (Bio Rad). Equal amount of proteins were subjected to SDS/PAGE (Sambrook, J., et al. (1989) Molecular Cloning: A Laboratory Manual (Second ed.) (CSHL Press), transferred onto nitrocellulose membranes, and probed with the anti-GST-mSARP1 polyclonal affinity purified IgG (1 μg/mL) or anti-β-catenin monoclonal IgG (Transduction Laboratories).

[1] = tested on: MCF7 breast adenocarcinoma cell line; test: Sensitivity of stably transfected MCF7 cells to cytotoxic stimuli; type: cell-based, human
Excerpt: The MCF7 breast adenocarcinoma cell line was chosen as a model to study the involvement of SARP proteins in the processes of apoptosis. The programmed cell death of these cells induced by different agents has been well characterized. Zyed et al. (1994) Cancer Res. 54:825–831. […] MCF7 cells were stably transfected with a pcDNA3 mammalian expression vector bearing full length msarp1 or hsarp2. The transfectants expressing msarp1 and hsarp2 were selected by Northern hybridization. […] Hannun and Obeid (1995) T. Biochem. Sci. 20:73–7; and Kolesnick and Fuks (1995) J. Exp. Med. 181:1949–52.
as §1

[2] = tested on: MCF7 breast carcinoma cells; test: Viability / apoptosis of MCF7 cells transfected with hsarp2 in pcDNA3; type: cell-based, human
Method: The NotI/XbaI fragment of hsarp2 was inserted into the NotI/XbaI sites of the mammalian expression vector pcDNA3 (Invitrogen). MCF7 breast carcinoma cells were transfected with this construct using LipofectAMINE reagent (Gibco BRL) according to manufacturer's protocol. The percentage of living cells was estimated by counting the relative amount of adherent cells using a Coulter Counter® (NZ). […] The cells were also treated with hTNF (50 ng/ml) and adriamycin (1 μg/ml). The results obtained are depicted in FIG. 6.

CCCCCCCCCCCCCC(=O)O[C@@H]1[C@@H](C)[C@@]2(O)[C@@H](C=C(CO)C[C@]3(O)C(=O)C(C)=C[C@@H]23)[C@H]2C(C)(C)[C@]12OC(C)=O [TPA]
induction of msarp1 message (msarp1): No induction of msarp1

Cc1c2oc3c(C)ccc(C(=O)N[C@@H]4C(=O)N[C@H](C(C)C)C(=O)N5CCC[C@H]5C(=O)N(C)CC(=O)N(C)[C@@H](C(C)C)C(=O)O[C@@H]4C)c3nc-2c(C(=O)N[C@@H]2C(=O)N[C@H](C(C)C)C(=O)N3CCC[C@H]3C(=O)N(C)CC(=O)N(C)[C@@H](C(C)C)C(=O)O[C@@H]2C)c(N)c1=O [actinomycin D] (I: T[dV]P[Sar][NMeV] / II: T[dV]P[Sar][NMeV]; ester I:1-I:C, II:1-II:C; linker I:N-II:N via Actinocin(9to1))
apoptosis / cell death (C3H/10T1/2 cells): Apoptosis of G0 is also induced

C[C@@H]1C[C@@H]([C@H](O)CC2CC(=O)NC(=O)C2)C(=O)[C@@H](C)C1 [cycloheximide]
apoptosis (C3H/10T1/2 cells; exponentially proliferating 10T1/2 cells, serum deprivation): apoptosis is delayed | apoptosis / cell death (C3H/10T1/2 cells): rapidly induces death

COc1ccc(C[C@H](N)C(=O)N[C@H]2[C@@H](O)[C@H](n3cnc4c(N(C)C)ncnc43)O[C@@H]2CO)cc1 [puromycin]
apoptosis / cell death (C3H/10T1/2 cells): Apoptosis of G0 is also induced

α-amanitin
apoptosis / cell death (C3H/10T1/2 cells): Apoptosis of G0 is also induced

B1: mSARP1: mouse secreted apoptosis related protein of 295 amino acids encoded by msarp1, SEQ. ID. NO: 2 (protein)
chain: MPRGPASLLLLVLASHCCLGSARGLFLFGQPDFSYKRTNCKPIPANLQLCHGIEYQNMRLPNLLGHETMKEVLEQAGAWIPLVMKQCHPDTKKFLCSLFAPVCLDDLDETIQPCHSLCVQVKDRCAPVMSAFGFPWPDMLECDRFPQDNDLCIPLASSDHLLPATEEAPKVCEACKTKNEDDNDIMETLCKNDFALKIKVKEITYINRDTKIILETKSKTIYKLNGVSERDLKKSVLWLKDSLQCTCEEMNDINAPYLVMGQKQGGELVITSVKRWQKGQREFKRISRSIRKLQC
intracellular concentration of β-catenin (β-catenin): not sensitive enough to discern a significant difference | concentration of β-catenin (β-catenin; immunohistochemistry, MCF7 transfectants): higher concentration of β-catenin | cell sensitivity to apoptosis induced by TNF [1]: higher resistance | cell sensitivity to apoptosis induced by ceramide [1]: higher resistance | growth rate and cell cycle vs parental cells [1]: not significantly different

B2: hSARP2: human secreted apoptosis related protein of 314 amino acids encoded by hsarp2 cDNA, SEQ ID NO: 18 (protein)
chain: SEYDYVSFQSDIGPYQSGRFYTKPPQCVDIPADLRLCHNVGYKKMVLPNLLEHETMAEVKQQASSWVPLLNKNCHAGTQVFLCSLFAPVCLDRPIYPCRWLCEAVRDSCEPVMQFFGFYWPEMLKCDKFPEGDVCIAMTPPNPTEASKPQGTTVCPPCDNELKSEAIIEHLCASEFALRMKIKEVKKENGDKKIVPKKKKPLKLGPIKKKDLKKLVLYLKNGADCPCHQLDNLSHHFLIMGRKVKSQYLLTAIHKWDKKNKEFKNFMKKMKNHECPTFQSVFK
intracellular concentration of β-catenin (β-catenin): decreases the intracellular concentration of β-catenin | percentage of viable cells ([2]; MCF7 transfected with pcDNA3-hsarp2, adherent cells counted): decrease in the percentage of viable cells | programmed cell death ([2]; breast carcinoma cell line, increased expression of hsarp2, dose dependent): increase programmed cell death | percentage of cells undergoing apoptosis in culture ([2]; hsarp2 in expression vector transfected into human cell lines): increases | cell sensitivity to apoptosis induced by TNF [1]: sensitized the cells to apoptosis | cell sensitivity to apoptosis induced by ceramide [1]: sensitized the cells to apoptosis | growth rate and cell cycle vs parental cells [1]: not significantly different
